Earlier results on 3 molecules are cited in PMC8162404, “Proteomimetic surface fragments distinguish targets by function” (Chemical Science, 2020).

What all share (settings): native ligand used as competitor; cited from earlier work
The target in one data set is T1, S100B (Homo sapiens, UniProt P04271).
T1 construct: made in house; host or cells: Escherichia coli BL21(DE3)
T1 sequence (P04271 1-92): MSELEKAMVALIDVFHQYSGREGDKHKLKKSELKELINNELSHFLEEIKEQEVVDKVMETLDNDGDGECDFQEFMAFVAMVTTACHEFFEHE
Also noted: method as in PMID 26527685.

For the next data set, the target named is Gal-1. Further details: method as in PMID 15476813.
The target in a further data set is T2, S100A4 (Homo sapiens, UniProt P26447).
T2 construct: made in house; host or cells: Escherichia coli BL21(DE3)
T2 sequence (P26447 whole entry): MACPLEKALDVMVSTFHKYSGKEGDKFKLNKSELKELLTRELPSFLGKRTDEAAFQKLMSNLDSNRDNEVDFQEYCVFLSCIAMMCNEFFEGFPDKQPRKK
Further details: method as in PMID 26527685.

Usually Kd stands for the equilibrium constant for the complex coming apart. On to “RSK1 (689–735): peptide motif of ribosomal S6 kinase 1, native ligand competitor for S100B (QDLQLVKGAMAATYSALNSSKPTPQLKPIESSILAQRRVRKLPSTTL; UniProt Q15418 689-735, looked up, fragment)”, for which, in the data set with S100B, the Kd is 1800 nM.

For the molecule `OC[C@H]1O[C@@H](O[C@H]2[C@H](O)[C@@H](O)C(O)O[C@@H]2CO)[C@H](O)[C@@H](O)[C@H]1O` (mixture of isomers) [Lactose], on Gal-1, the equilibrium dissociation constant (Kd) was 409000 nM.

“NMIIA (1893–1923): peptide motif of non-muscle myosin IIA, native ligand competitor for S100A4”: in the data set with S100A4, the Kd is 7 ± 1 nM.
